Measurements as given in US20170008928A1, “NOVEL PEPTIDES AND PEPTIDE DERIVATIVES AND USES THEREOF” (Novo Nordisk A/S, priority 2015, published 2017).
Starred links: 1 amine or outer side, 2 acyl side, 3 side chain; linkers in the order of their positions; H or OH if unused. Non-standard residues stand in square brackets, D forms with d. Residues, ends and D or L forms follow the SMILES beside them. No end group written: not given here. *: point of attachment. sY = N[C@@H](Cc1ccc(OS(=O)(=O)O)cc1)C(=O)O; C18 diacid = O=C(O)CCCCCCCCCCCCCCCCC(=O)*; NMe1Nal = CN[C@@H](Cc1cccc2ccccc12)C(=O)O; γGlu = O=C(O)[C@H](CCC(=O)[*:2])N[*:1]; NMeF = CN[C@@H](Cc1ccccc1)C(=O)O; dNMeD = CN[C@H](CC(=O)O)C(=O)O; Nle = CCCC[C@H](N)C(=O)O; AEEA = NCCOCCOCC(=O)O

Assays:
[1] = biological target: T1, human cholecystokinin-2 receptor (CCK-2R) (Homo sapiens, UniProt P32239); experiment: In vitro potency on CCK-2R, whole cell functional assay (IP1 accumulation, IP-One HTRF); type: cell-based; conditions: 1321-N1 cells stably expressing CCK-2R; IP1 accumulation; highest dose tested 1×10^6 pM; read-out: EC50 (CCK-2R)
T1 construct: host or cells: 1321-N1 cells (plasma membranes prepared by Evotec AG Hamburg)
T1 sequence (P32239 1-447): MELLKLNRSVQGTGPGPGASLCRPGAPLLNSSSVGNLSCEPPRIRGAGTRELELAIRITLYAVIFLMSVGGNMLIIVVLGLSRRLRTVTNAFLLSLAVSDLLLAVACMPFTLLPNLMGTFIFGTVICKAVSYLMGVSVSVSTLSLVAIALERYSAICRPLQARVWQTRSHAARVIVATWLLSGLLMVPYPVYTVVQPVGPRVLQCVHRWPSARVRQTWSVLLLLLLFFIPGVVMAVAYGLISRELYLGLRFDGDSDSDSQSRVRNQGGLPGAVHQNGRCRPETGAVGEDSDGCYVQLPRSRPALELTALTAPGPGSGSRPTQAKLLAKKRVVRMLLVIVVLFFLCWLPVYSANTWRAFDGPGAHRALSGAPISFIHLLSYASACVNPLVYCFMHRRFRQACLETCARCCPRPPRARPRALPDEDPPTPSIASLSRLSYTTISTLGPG

[2] = Pharmacokinetic (PK) studies in mini-pig, i.v.; type: in vivo; conditions: i.v. 5 nmol/kg, female Göttingen mini-pigs, harmonic mean
Experimental: The purpose of this study is to determine the protraction in vivo of a number of CCK derivatives of the invention after intravenous (i.v.) administration to mini-pigs, i.e. the prolongation of their time in the body and thereby their time of action. This was done in pharmacokinetic (PK) studies, where the terminal half-life of the derivative in question was determined. By terminal half-life is generally meant the period of time it takes to halve a certain plasma concentration, measured after the initial distribution phase.
The derivatives of the compounds listed in Table 4 were subjected to PK studies as described in the following.
Female Göttingen mini-pigs obtained from Ellegaard Göttingen Minipigs (Dalmose, Denmark) at approximately 6 months of age and weighing approximately 17 kg were used in the studies. […] Additional blood samples were collected for the derivatives of Examples 2, 4, 7, 8, and 9 at the following time points: 5, 12, 22, 28 and 144 hours. The blood samples were collected into test tubes containing EDTA buffer for stabilisation and kept on ice for max. 20 minutes before centrifugation. The centrifugation procedure to separate plasma was: 4° C., approx. 2500 g for 10 minutes. Plasma was collected and immediately transferred to Micronic tubes stored at −20° C. until assayed.
Plasma was pipetted into Micronic tubes on dry ice, and kept at −20° C. until analysed for plasma concentration of the respective CCK derivative using LC-MS. The plasma samples (including standard curve samples used for quantitation of unknowns and prepared from blank plasma spiked with CCK compound at a concentration range of 0.5-2000 nM for the compounds of Examples 3, 5, 6 or 0.5-1000 nM for the remaining Example compounds) were protein precipitated using three volumes of methanol and centrifuged (16000×g, 4° C., 20 min). The supernatants were injected into the chromatographic system (TurboFlow Transcend 1250 & 10 valve VIM, Thermo Fisher Scientific) which consisted of an initial Turboflow Cyclone purification column 0.5×50 mm (Thermo Fischer Scientific) and an eluting Aeris peptide 3.6 μm XB—C18 column 2.1×50 mm (Phenomenex) kept at 60° C.
The CCK derivatives of Examples 2-9 were eluted using LC-MS method I: A chromatographic gradient system with mobile phases consisting of water with 0.1 v/v % formic acid (mobile phase A) and water/acetonitrile 10/90 v/v with 0.1 v/v % formic acid (mobile phase B). The 2 minute gradient started at 60% mobile phase B and ended at 100% mobile phase B with a flow of 0.4 mL/min. The CCK derivatives were detected and quantified after on-line infusion of the LC flow to the LTQ OrbiTrap Discovery mass spectrometer (Thermo Fischer Scientific) equipped with an electrospray interface operated in negative mode, ESI− (Sheath gas flow rate at 40, Aux gas flow rate at 30, Sweep gas flow rate at 2, Spray voltage at 2.8 kV, Capillary temp. at 275° C., S-lens RF level at −125 and Heater temp. at 325° C.).
The remaining Example compounds were eluted using LC-MS method II: A chromatographic gradient system with mobile phases consisting of water with 1 v/v % formic acid (mobile phase A) and water/acetonitrile 10/90 v/v with 1 v/v % formic acid (mobile phase B). The initial 0.25 minute gradient started at 0% mobile phase B and ended at 70% mobile phase B followed by the second 2.2 minute gradient started at 70% mobile phase B and ended at 75% mobile phase B with a flow of 0.4 mL/min. These CCK derivatives were detected and quantified as described above except that the Spray voltage was 4.0 kV.
Individual plasma concentration-time profiles were analysed by a non-compartmental model in Phoenix v. 6.3 (Pharsight Inc., Mountain View, Calif., USA).

[3] = biological target: T2, human cholecystokinin-1 receptor (human), P32238; experiment: cell-based or functional assay
T2 chain: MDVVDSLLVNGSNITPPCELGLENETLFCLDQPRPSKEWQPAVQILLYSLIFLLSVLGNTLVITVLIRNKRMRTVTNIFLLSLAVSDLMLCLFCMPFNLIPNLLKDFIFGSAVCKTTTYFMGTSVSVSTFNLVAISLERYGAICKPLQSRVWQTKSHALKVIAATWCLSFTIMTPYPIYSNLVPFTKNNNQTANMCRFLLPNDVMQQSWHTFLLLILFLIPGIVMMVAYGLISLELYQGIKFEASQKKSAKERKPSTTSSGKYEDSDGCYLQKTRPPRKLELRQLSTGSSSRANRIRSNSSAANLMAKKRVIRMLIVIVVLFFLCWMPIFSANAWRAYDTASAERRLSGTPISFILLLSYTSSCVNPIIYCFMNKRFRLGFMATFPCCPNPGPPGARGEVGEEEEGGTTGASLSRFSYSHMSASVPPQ

[4] = biological target: T3, human cholecystokinin-2 receptor (human), P32239; experiment: cell-based or functional assay
T3 chain: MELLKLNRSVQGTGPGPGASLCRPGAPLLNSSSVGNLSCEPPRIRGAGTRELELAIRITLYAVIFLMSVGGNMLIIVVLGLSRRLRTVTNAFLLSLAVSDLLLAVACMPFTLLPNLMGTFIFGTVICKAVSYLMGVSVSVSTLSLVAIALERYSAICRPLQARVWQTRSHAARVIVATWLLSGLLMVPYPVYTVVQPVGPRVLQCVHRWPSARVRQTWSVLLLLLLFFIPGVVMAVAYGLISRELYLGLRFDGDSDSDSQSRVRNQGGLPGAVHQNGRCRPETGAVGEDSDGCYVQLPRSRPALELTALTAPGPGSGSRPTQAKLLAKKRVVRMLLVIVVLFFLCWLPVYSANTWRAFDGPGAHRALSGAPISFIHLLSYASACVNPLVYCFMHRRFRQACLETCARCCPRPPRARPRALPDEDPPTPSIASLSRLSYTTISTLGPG

[5] = biological target: T2, human cholecystokinin-1 receptor …; experiment: SPA competition vs [125I]-CCK-8s, membranes
[6] = biological target: T4, human cholecystokinin-2 receptor (human, UniProt P32239 1-447); experiment: cell-based or functional assay
T4 sequence (looked up): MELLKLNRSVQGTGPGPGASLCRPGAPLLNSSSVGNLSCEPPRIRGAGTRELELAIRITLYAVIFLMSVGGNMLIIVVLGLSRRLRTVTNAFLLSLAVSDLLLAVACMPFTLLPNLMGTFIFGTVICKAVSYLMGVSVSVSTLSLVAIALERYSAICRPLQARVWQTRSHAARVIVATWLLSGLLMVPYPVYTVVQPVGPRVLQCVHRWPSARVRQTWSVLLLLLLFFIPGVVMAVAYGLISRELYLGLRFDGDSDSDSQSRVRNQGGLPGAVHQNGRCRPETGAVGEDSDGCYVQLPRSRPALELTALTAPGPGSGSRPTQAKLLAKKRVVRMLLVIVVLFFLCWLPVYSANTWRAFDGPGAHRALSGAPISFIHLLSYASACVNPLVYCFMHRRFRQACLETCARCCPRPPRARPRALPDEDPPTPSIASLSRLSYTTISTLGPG

For `CCCC[C@H](NC(=O)[C@H](Cc1c[nH]c2ccccc12)NC(=O)CNC(=O)[C@H](CC(C)C)NC(=O)[C@H](Cc1ccc(OS(=O)(=O)O)cc1)NC(=O)[C@H](CC(=O)O)NC(=O)COCCOCCNC(=O)COCCOCCNC(=O)CC[C@H](NC(=O)CCCCCCCCCCCCCCCCC(=O)O)C(=O)O)C(=O)N(C)[C@H](CC(=O)O)C(=O)N(C)[C@@H](Cc1cccc2ccccc12)C(N)=O` [Example 4, 2-[2-[2-[[2-[2-[2-[[(4S)-4-Carboxy-4-(17-carboxyheptadecanoylamino)butanoyl]amino]ethoxy]ethoxy]acetyl]amino]ethoxy]ethoxy]acetyl-Asp-sTyr-Leu-Gly-Trp-Nle-DMeAsp-Me1Nal-amide] ({C18 diacid-γGlu-AEEA-AEEA}-D[sY]LGW[Nle][dNMeD][NMe1Nal]-NH2), the EC50 [1] was 340 nM and the “Plasma terminal half-life (T½)” value [2] was 147 h.

An EC50 (CCK-1R) [3] of 0.17 nM, an EC50 (CCK-2R) [4] of 880 nM and an IC50 [5] of 0.65 nM were found for {C18 diacid-γGlu-AEEA-AEEA}-D[sY]LGWA[DMeAsp][NMeF]-NH2 in this work.

An EC50 (CCK-1R) [3] of 0.15 nM, an EC50 (CCK-2R) [4] of over 1000 nM and an IC50 [5] of 0.075 nM were found for D[sY]LGWQ[DMeAsp][NMeF]-NH2 [Asp-sTyr-Leu-Gly-Trp-Gln-DMeAsp-MePhe-amide] in this work.

An EC50 (CCK-2R) [6] of over 1000 nM, an EC50 (CCK-1R) [3] of 0.25 nM and an IC50 [5] of 0.042 nM were found for D[sY]LGWL[DMeAsp][NMeF]-NH2 [Asp-sTyr-Leu-Gly-Trp-Leu-DMeAsp-MePhe-amide] in this work.

An EC50 (CCK-2R) [6] of over 1000 nM, an EC50 (CCK-1R) [3] of 0.34 nM and an IC50 [5] of 0.62 nM were found for D[sY]LGWV[DMeAsp][NMeF]-NH2 [Asp-sTyr-Leu-Gly-Trp-Val-DMeAsp-MePhe-amide] in this work.

An EC50 (CCK-2R) [6] of over 1000 nM, an EC50 (CCK-1R) [3] of 0.34 nM and an IC50 [5] of 0.11 nM were found for D[sY]LGWP[DMeAsp][NMeF]-NH2 [Asp-sTyr-Leu-Gly-Trp-Pro-DMeAsp-MePhe-amide] in this work.
